This note sets out measurements from the supplement of paper PMC5998384.

The test system of data set [1] is HeLa Kyoto. Kind of data set: solubility change mitosis vs G1/S (difference of NP-40 vs SDS log2 ratios) (log2 ratio difference); higher = more soluble in mitosis.
For data set [2], the system named is HeLa Kyoto. Kind of data set: solubility in G1/S (NP-40 vs SDS abundance) (log2 ratio); higher = more soluble. The note with it: cell cycle stage: G1/S.
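Throughout, for solubility change mitosis vs G1/S (difference of NP-40 vs SDS log2 ratios): synchronized HeLa Kyoto cells (double thymidine block for G1/S, nocodazole release for mitosis), protein amounts in NP-40 versus SDS lysates quantified by mass spectrometry, three biological replicates.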
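Throughout, for solubility in G1/S (NP-40 vs SDS abundance): HeLa Kyoto cells arrested at G1/S by double thymidine block, proteins quantified by TMT10plex mass spectrometry in mild NP-40 versus SDS extracts, three biological replicates.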

Regarding “MPLPGGLWWLLCCRRGFTLLHRDYGDGELSGDGDEDEDEETFELRTPSPAGGGRGPLEVTLTQPVRSGPVSNRLQSWEETWSLIPEKGLPEDDPDIVVKGWLYREPRGGGARPWLPPRRAWFVLTRDSLDQFSSSGKGARRLGSLVLTSLCSVTGPERRRKETGLWSVTVSGRKHSVRLCSPRQAEAERWGVALREVIASKAPLETPTQLLLRDIQESCGDPEAVALIYLRNPILRHTSGALYAPLLPLPYGVSAPGPGYAPLREEAVRLFLALQALEGARRPGPLMQGVLQTCRDLPALRDELFLQLAKQTSGPAGPPGLPATQDPAALRYWQLLTCMSCTFRPGGAVRGHLLGHLERTEQALPDSELAEYARFIRKALGRTRGRELVPSLAEISALSQRQELLCTVHCPGAGACAVAIDSHTTAGEVARELVGRLGLARSRNAFALYEQRGAQERALAGGTLVADVLTRFENLAAEEAGLEDSPDSGWRLCLRLHGPLHPEGLSPDGHELPFLFEQAHALLLRGRPPPPDDTLRALAALRLQSLQRDFSPRVPLPRLDRLLPPPAPPREDPPRPTPRPPPSAALLAGALWSPGLAKRRAERARRGGAGRTAGSIAREGGGGAGTAAAVLGGWKRLRGMGRAEAMAAYLALAAQCPGFGAARYDVLELSTEPGRGAPQKLCLGLGAKAMSLSRPGETEPIHSVSYGHVAACQLMGPHTLALRVGESQLLLQSPQVEEIMQLVNAYLANPSPERPCSSSSPPCQDLPDTSPPSQRPGLDEPQGQSGCLGQLQD [PLEKHH3]”, in the data set with HeLa Kyoto [1], the “solubility change mitosis (log2)” value is -0.16. In addition, in the data set on HeLa Kyoto [2], the “solubility in G1/S (log2)” value was found to be 0.00769.

With “MPLRDKYCQTDHHHHGCCEPVYILEPGDPPLLQQPLQTSKSGIQQIIECFRSGTKQLKHILLKDVDTIFECKLCRSLFRGLPNLITHKKFYCPPSLQMDDNLPDVNDKQSQAINDLLEAIYPSVDKREYIIKLEPIETNQNAVFQYISRTDNPIEVTESSSTPEQTEVQIQETSTEQSKTVPVTDTEVETVEPPPVEIVTDEVAPTSDEQPQESQADLETSDNSDFGHQLICCLCRKEFNSRRGVRRHIRKVHKKKMEELKKYIETRKNPNQSSKGRSKNVLVPLSRSCPVCCKSFATKANVRRHFDEVHRGLRRDSITPDIATKPGQPLFLDSISPKKSFKTRKQKSSSKAEYNLTACKCLLCKRKYSSQIMLKRHMQIVHKITLSGTNSKREKGPNNTANSSEIKVKVEPADSVESSPPSITHSPQNELKGTNHSNEKKNTPAAQKNKVKQDSESPKSTSPSAAGGQQKTRKPKLSAGFDFKQLYCKLCKRQFTSKQNLTKHIELHTDGNNIYVKFYKCPLCTYETRRKRDVIRHITVVHKKSSRYLGKITASLEIRAIKKPIDFVLNKVAKRGPSRDEAKHSDSKHDGTSNSPSKKYEVADVGIEVKVTKNFSLHRCNKCGKAFAKKTYLEHHKKTHKANASNSPEGNKTKGRSTRSKALV [ZNF800]”, the “solubility change mitosis (log2)” value in the data set on HeLa Kyoto [1] is 1.43. In the data set on HeLa Kyoto [2], the “solubility in G1/S (log2)” value was -3.34.

For the sequence “MPLTGVGPGSCRRQIIRALCLLLLLLHAGSAKNIWKRALPARLAEKSRAEEAGAPGGPRQPRADRCPPPPRTLPPGACQAARCQADSECPRHRRCCYNGCAYACLEAVPPPPVLDWLVQPKPRWLGGNGWLLDGPEEVLQAEACSTTEDGAEPLLCPSGYECHILSPGDVAEGIPNRGQCVKQRRQADGRILRHKLYKEYPEGDSKNVAEPGRGQQKHFQ [WFDC1]”, in the data set with HeLa Kyoto [1], the “solubility change mitosis (log2)” value stood at 0.522. Also, the “solubility in G1/S (log2)” value in the data set on HeLa Kyoto [2] came to 0.101.

In the case of “MPPGKVLQPVLKMKVDELFLYWLSEASTQRMLQDCLRRIKAPGRDQPTPGDGEQPGAWPTAPLAAPRPSGLEPPGTPGPGPALPLGAASSPRNAPHVRGTRRSAGTRVVQTRKEEPLPPATSQSIPTFYFPRGRPQDSVNVDAVISKIESTFARFPHERATMDDMGLVAKACGCPLYWKGPLFYGAGGERTGSVSVHKFVAMWRKILQNCHDDAAKFVHLLMSPGCNYLVQEDFVPFLQDVVNTHPGLSFLKEASEFHSRYITTVIQRIFYAVNRSWSGRITCAELRRSSFLQNVALLEEEADINQLTEFFSYEHFYVIYCKFWELDTDHDLLIDADDLARHNDHALSTKMIDRIFSGAVTRGRKVQKEGKISYADFVWFLISEEDKKTPTSIEYWFRCMDLDGDGALSMFELEYFYEEQCRRLDSMAIEALPFQDCLCQMLDLVKPRTEGKITLQDLKRCKLANVFFDTFFNIEKYLDHEQKEQISLLRDGDSGGPELSDWEKYAAEEYDILVAEETAGEPWEDGFEAELSPVEQKLSALRSPLAQRPFFEAPSPLGAVDLYEYACGDEDLEPL [PPP2R3B]”, the “solubility change mitosis (log2)” value with HeLa Kyoto [1] is -0.203. The “solubility in G1/S (log2)” value in the data set with HeLa Kyoto [2] came to 0.0833.
